Reference: the DeepSol protein solubility set

Experiment: soluble on expression in E. coli; label from the status in PepcDB or PDB records

Sequence	soluble on expression in E. coli
MMPLSTPDFASIRDTLLRDLQNLRADADIAPDSDYFVRASSVASAVEGLYQHQSWIARQIFPDTADSEYLEQHARLRGIVRKPAAAASGTLRISGNAGAVVSGSLQLRIGEQLYATPAANPDGSPYAARLDANGQAELPIFASQAGAAGNQPESLPVELMQAPSGVSAKALLLSMRNGVDVEDDAALLDRLLELIRRPPAGGNRHDYRRWAMEVKGVSAAYVYPLRRGLGTVDVVITANGDLPSQEILNNVQAHIEDLRPVTAKSCLVLAPTPRPVDIDVALNLGGANLDAFTPLLQQTLQAYFAGLAPGERLVKSRIEALISDLPGVQDRQLNSPAGNVDPVSDPTKVEWLRLGKLTVGLLKLEHHHHHH	soluble
MTAPPPPLVELPPGSMVERWSITKKLGEGGCGAVYLCTDATGKYALKVEGISEAMQVLKMEVLVLGELTKRGSRHFCKIEDKGRYGSFNYVVMTLVGKSLQDLRKGTAQQCLSLACSLSVGIQSLEALEDLHNIGYLHRDVKPGNYTIGRAELNELRKVYILDFGMARKFTDNNGVIRKPRAAAGFRGTVRYAPIACHKNQELGRKDDVEVWLYMQVELTVGRVPWKEITDMNAVGQAKQAIRNTPEKMFVFPCPANELKEIMKMVDSWDYFADPNYADCYRLMKQTLANCGKPEYPYDWEPGMPLNYMVK	not soluble
MESFQNLAKKPTLKKQIIEQAFDLKCENCGRKYDYYKFDDGSEFKHGCDCEMIEYAKQSTENYHKRNRRRKAERIFKQSIMNEDLTKATFDNYNPTNEQLVYAKNLCERYANNFTLDNKQSLLIQGSFGTGKSHLSMSIVKSVKAKGYTVLYMNVPQLISTIKNTYNNQTAMTEQELAQIISDVDLMVFDDYGINMNEFATSKMFELIESRIGKHNIFTTNLDEKEMTKNKDLQRIFSRIMSNTTLIKMDGQDYRTRGLKLLEHHHHHH	soluble
MNNQYLQFVREQLIIATADLSGATKGQLEAWQENAMFDTGRYRRKKIRYRDEVTGKMITRDNPPIPGKQSLAKGTSIPLVSPVEFSTSSWRRAVLSLEEHYKAWLLWCYSGSICWEYQIAITQWAWNEFNAQSGTRKIAGKTQERLKKLIWLAAQAVKAELFGGEGYEYQELALLAGVTTKNWSKTFTRHWVAMKHIFHRLDSEALLFVMRTRSKKRRHFQSKVLQK	not soluble
MKEVEKNEIKRLSDRLDAIRHQQAGLSLVESADKYAELEKEKETLEAEIIRLREVHSQKLSKEAQKLMNLPFRRAITKKEQADMGKLKKSVRGLIVVHPMTALGREMGLKEMTGFAKSEF	not soluble
MGSDKIHHHHHHMGEEIAISLKNVSKCFKRYSRPVDRLKEVLLPGKSRTDEFWALRDINIEIPKGQTVGIVGRNGSGKSTLLQIIVGTLTPSSGDVRVVGRVSALLELGSGFNPEFTGRQNVFFNGQLLGLSQKQIEDRFDDIVAFADIGDFIEQPVKTYSSGMYVRLAFSVAVNVDPEILIVDEALAVGDVVFQHRCMRRMRAMMDSGVTTLFVSHDSGAIKTLCNSAVMIHDGKIHTTGLPNTVIIEYLKLVTELELGLAQDITVNSQQQVNPVVDNAIQASDSPNFDIESPSSNFSKATRRGSGKARIESVKILNQLGHYAGESPIFAFNEEVTLIVNLKVYYTIKSCIVGFHVCDKNGNEVIGSNTLEENIKIDKLESGEEIEIKFKFNLPLRPSSYSLTVAGAESYESLSFDWIDNIMVFQILPPDTGKLIHALVHQPMVVKVNKKVLPTVVTPA	not soluble
MCGRFTLTLPPDLLAEIIGEIEAARVQPRYNIAPAQEVAVVRQDAGGRRHLDYLRWGLIPPWAKDASVGNHMINARSETVAEKPAFRHAFRSRRCLVLASGFYEWKAEGNRKQPLYIHMKDGGPMVFAGLWESWKSPEGAIVESCTILTTYSNSLIRPLHDRMPVILGRSDWDIWLSREATSEELTPLFQPYPSDLLAMYPVGTGVNSPRNDSPDLLEPLNEPLEHHHHHH	not soluble
MHHHHHHSSGVDLGTENLYFQSMRPFLIGVSGGTASGKSTVCEKIMELLGQNEVEQRQRKVVILSQDRFYKVLTAEQKAKALKGQYNFDHPDAFDNDLMHRTLKNIVEGKTVEVPTYDFVTHSRLPETTVVYPADVVLFEGILVFYSQEIRDMFHLRLFVDTDSDVRLSRRVLRDVRRGRDLEQILTQYTTFVKPAFEEFCLPTKKYADVIIPRGVDNMVAINLIVQHIQDILNGDICKWHRGGS	soluble
SLRFLGEKAAAKRQVLNADSVEQSFVGLKQLISCRNWRAAVDLCGRLLTAHGQGYGKSGLLTSHTTDSLQLWFVRLALLVKLGLFQNAEMEFEPFGNLDQPDLYYEYYPHVYPGRRGSMVPFSMRILHAELQQYLGNPQESLDRLHKVKTVCSKILANLEQGLAEDGGMSSVTQEGRQASIRLWRSRLGRVMYSMANCLLLMKDYVLAVEAYHSVIKYYPEQEPQLLSGIGRISLQIGDIKTAEKYFQDVEKVTQKLDGLQGKIMVLMNSAFLHLGQNNFAEAHRFFTEILRMDPRNAVANNNAAVCLLYLGKLKDSLRQLEAMVQQDPRHYLHESVLFNLTTMYELESSRSMQKKQALLEAVAGKEGDSFNTQCLKLA	not soluble
MDRIPFGIRQLDSIINGGAPAGSVVLLSGEAGAGSREFMHTSALINGLEQVDTELHDLYYGDRSPDAVAPDEVHYISFTTNESQLVSEMRLAMDDDVVDKGSRAVEFHDLSERYFHISPVPREWYASETASITDLRARHEREDLLGTLGMVLNEVAANNLVVIDSLSDLVSAMGEEIEWSDISSLVQGLQKAAHQWGCLLLLHINPETLSTVRHGQLVDASHGTMEFAWESGGSTRARTLVVQQFRGVLSQIEDEDIVQFETELGDAGFDISDVRKIRLEHHHHHH	not soluble
MYHWFALRSVPLVGNVLYRRLLDRFGSPEAVFRASDAELASVRGVSSAVAASIRGHDPRAFAESECERVRRAGVRIVTIRDPDYPPLLLQIADPPPYLYVKGDPTGLEPAVAVVGSRRATVYGRTVTARLAEDLARRGVAVVSGMARGIDTAAHQGALAGEGRTVGVLGCGIDVVYPPENRALFARVADRGALVSEFPLGMGPLAENFPRRNRIISGMCRGVLVVEAAERSGSLITAQMALDQGRDVFAIPGNITSSGSSGTNRLIREGAKLVAGVEDILEELVPRAAAAVAVAPPLPPLPAGEAALMAMFGADPLHIDEIIAKSALTVGEVSAMLLRLELKGVVTQLPGKFFHAN	not soluble
MKPKVLLAGGTGYIGKYLSEVIENDAELFTISKYPDNKKTDDVEMTWIQCDIFHYEQVVAAMNQIDIAVFFIDPTKNSAKITQSSARDLTLIAADNFGRAAAINQVKKVIYIPGSRYDNETIERLGAYGTPVETTNLVFKRSLVNVELQVSKYDDVRSTMKVVLPKGWTLKNVVNHFIAWMGYTKGTFVKTEKSHDQFKIYIKNKVRPLAVFKIEETADGIITLILLSGSLVKKYTVNQGKLEFRLIKESAVVYIHLYDYIPRLFWPIYYFIQAPMQKMMIHGFEVDCRIKDFQSRLKSGENMKYTK	not soluble
MSLGLFSKKPPCPICGGKIPLILPSKIEDEYICNTCYNKIDMGADQENHLTMQGLREYLAFYEQNQRLKEQFVISERIDFGLWDTKIIFDHRNKLFCMSKNPDKTVFEGQQLKSFTIKEDSTPLFEGSAAGIRRYASTVTERTMAMAPQIAQSAANRRMARTLDRLDDGKVNNSAPVQYFDIPEPFQAFNVELHFDHPYWTVLQCDMDGPRFDNSHPDVNNYLRSYQQSIEEIEKLVAALRTVAFPGAAEQSVGLGPVGMQAAYTTMAPPTDAIEEIKKYKALMEDGIISQQEFEAKKKQLLGIEGHHHHHH	soluble
MSLDGSVAAAGLGLGLPTTDSRGHYQLLLSGRALADRYRRIYTTALSDRDQAGSSTGHPASRNKKILNKKKLKRKQKSKSKVKTRSKSENVENTVIIPDIKLHSNPSAFNIYCNVRHCVLEWQKKETSLAAASKNSVQSGESDSDEEEESREPPIKLPKIIEVGLCEVFELIKETRFSHPSLCLRSLQALLNVLQGQQPEGLQSEPPEVLESLFQLLLEITVRSTGMNDSTGQSLTALSCACLFSLVASWGETGRTLQAISAILTNNGSHACQTIQVPTILNSLQRSVQAVLVGKIQVQDWFSNGIKKAALMHKWPLKEVSVDEDDQCLLQNDGFFLYLLCKDGLYKIGSGYSGTVRGHIYNSTSRIRNRKEKKSWLGYAQGYLLYRDLNNHSMTAIRISPETLEQDGTVLLPDCHTEGQNILFTDGEYINQIAASRDDGFVVRIFATSTEPVLQQELQLKLARKCLHACGISLFDLEKDLHIISTGFDEESAILGAGREFALMKTANGKIYYTGKYQSLGIKQGGPSAGKWVELPITKSPKIVHFSVGHDGSHALLVAEDGSVFFTGSASKGEDGESTKSRRQSKPYKPKKIIKMEGKIVVYTACNNGSSSVISKDGELYMFGKDAIYSDSSSLVSDLKGHFVTQVAMGKAHTCVLMKNGEVWTFGVNNKGQCGRDTGAMNQGGKGFGVENMATAMDEDLEEELDEKDEGHHHHHH	not soluble
MGSDKIHHHHHHMKCLRESAIVAYAETKVMEKSDRDVWELDAEVLEALLERSGFEKGEIDGLVMAGFGLTAAGESFWAQVTADQLGLELDYCDQVHIGGCSATGSVARAAAAIDAGLCTTVLLLFADTGVAENNRGDRSFRREWADPYGVFGPPDAFGLLTRRYEHQYGLDYEMLGKLAVTQRAHAVLNENACEKLRKPITIDDYLNSRMIADPIRLLDCVMRCDAASGLLMTSRRRAREKGIDKFITPIGYGERTNFQGGENFVDVTRSGHEACGKRALAQAGLALKDVASFHPYDDFIIAIMLQLEAFGFCGRGQGVQFIREMNFSFDGDLPLNTGGGQISAGQAACCSHNLIEAIRQLMGEGGARQVRNTANALVSGIGWINYSRNWGTSSALVLAPNA	not soluble
SDIEQKQAEIIDQLVKRASTCKSEALGPLIIEATSHPSLFAFSEILALPNVAQLEGTTDSVYLDLLRLFAHGTWGDYKCNATRLPHLSPDQILKLKQLTVLTLAESNKVLPYDTLMVELDVSNVRELEDFLINECMYAGIVRGKLDQLKRCFEVPFAAGRDLRPGQLGNMLHTLSNWLNTSENLLISIQDKIKWADNMSEMDKKHRKEAEEGVEEVKKSLSMKGDVDIRGNKEMFGEPSGVMDYEEDGIRPKRRRHPVTR	soluble
MAHHHHHHSGMSGMRVYLGADHAGYELKQRIIEHLKQTGHEPIDCGALRYDADDDYPAFCIAAATRTVADPGSLGIVLGGSGNGEQIAANKVPGARCALAWSVQTAALAREHNNAQLIGIGGRMHTVAEALAIVDAFVTTPWSKAQRHQRRIDILAEYERTHEAPPVPGAPA	soluble
SPMPAGRPRFLRSMALSSQTREWLEKGMPTEAEAGVPIRLQERAANTAPQARAEERHTQPADAAAPHARAERGRTLQAPASTSPLYTGAVPRANRIVQQLVEAGADLANIRTMFRNMLRGEEMILSRAEQNVFLQHFPDMLPCGIDRNSELAIALREALRRADSQQAARAPARTPPRSS	soluble
MSLNINDALTSILASKKYRALCPDTVRRILTEEWGRHKSPKQTVEAARTRLHGICGAYVTPESLKAAAAALSAGDVKKALSLHASTKERLAELDTLYDFIFSAETPRRVLDIACGLNPLALYERGIASVWGCDIHQGLGDVITPFAREKDWDFTFALQDVLCAPPAEAGDLALIFKLLPLLEREQAGSAMALLQSLNTPRMAVSFPTRSLGGRGKGMEANYAAWFEGGLPAEFEIEDKKTIGTELIYLIKKNGEGHHHHHH	soluble
